{"source": "the nanobody polyreactivity screen of Harvey et al. (2022)"}
{"experiment": "yeast display, Sf9 membrane polyspecificity reagent, FACS + sequencing; frameworks hold sequencing errors", "procedure,_shortened": "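Sorting gates, low and high (top ~1%), were placed on anti-HA fluorescence to track expression and on streptavidin fluorescence to track reagent binding. A clone's polyreactivity label is taken from the gate it came out of. The reagent was 10% biotinylated, detergent-solubilized Sf9 membrane, applied for 1 hour at 4 °C to galactose-induced yeast display cells.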"}
{"sequence": "QVQLVESGGGLVQAGGSLRLSCAASGRTFYLYAMGWYRPAPGKERELVAAITSGGSTNYADSVKGRFTISRDNAKNTVYLQMNSLKPEDTAVYYCNAYKRGYLYRYNYWGQGTQVTVSS", "polyreactivity (PSR sort gate)": "high polyreactivity"}
{"sequence": "QVQLVESGGGLVQAGGSLRLSCAASGRTFYLYAMGWYRPAPGKERELVAAITWSGGSTYYADSVKGRFTISRYNAKNTVFLQMNSLKPEDTAVYYCAAGLYLFQIWFGNEYDYWGQGTQVTVSS", "polyreactivity (PSR sort gate)": "high polyreactivity"}
{"sequence": "QVQLVESGGGLVQAGGSLRLSCAASGRTFYLYAMGWYRQAPGKERELVAAITRRGGSTYYADSVKGRFTISRDNAKNTVYLQMNSLKPEDTAVYYCAADRPGTGYSDYDYWGQGTQVTVSS", "polyreactivity (PSR sort gate)": "high polyreactivity"}
{"sequence": "QVQLVESGGGLVQAGGSLRLSCAASGRTFYLYAMGWYRQAPGKVRELVAAITRRGGSPYYADSVKGRFTISRDNAKNTVYLQMNSLKPEDTAVSYCAADRPGTGYSDYDYWGQGTQVTVSS", "polyreactivity (PSR sort gate)": "high polyreactivity"}
{"sequence": "QVQLVESGGGLVQAGGSLRLSCAASGRTFYLYARGWYRQAPGKERELVAAITRSGGSTYYADSVKGRFTISRDNAKNTVYLQMNSLKPEDTAVYYCAAYSYYGAGDRAYDYWGQGTQVTVSS", "polyreactivity (PSR sort gate)": "high polyreactivity"}
{"sequence": "QVQLVESGGGLVQAGGSLRLSCAASGRTFYLYTMGWYRQAPGKERELVAAITRGGNTYYADSVKGRFTISRDNAKNTVYLQMNSLKPEDTAVYYCAAADYTTPVPYGRKGFDYWGQGTQVTVSS", "polyreactivity (PSR sort gate)": "low polyreactivity"}
{"sequence": "QVQLVESGGGLVQAGGSLRLSCAASGRTFYNNAMGWYRPAPGKERELVAAISQRTGRTYYADSVKGRFTISRDNAKNTVYLQMNSLKPEDTAVYYCNKVAYYSRRMDYWGQGTQVTVSS", "polyreactivity (PSR sort gate)": "high polyreactivity"}
{"sequence": "QVQLVESGGGLVQAGGSLRLSCAASGRTFYNYAMGWYRQAPGKERELVAAIRGSGGSTYYADSVKGRFTISRDNAKNTVYLQMNSLKPEETAVYYCNAVSQSSEYDYWGHGTQVTVSS", "polyreactivity (PSR sort gate)": "high polyreactivity"}
{"sequence": "QVQLVESGGGLVQAGGSLRLSCAASGRTFYPNTMGWYRQAPGKERELVAAIRSSGGSTYYADSVKGRFTISRDNAKKTVYLQMNSLKPEDTAVYYCAAKGRSSYFYWFDYWGQGTQVTVSS", "polyreactivity (PSR sort gate)": "high polyreactivity"}
{"sequence": "QVQLVESGGGLVQAGGSLRLSCAASGRTFYPYAMGWYRQAPGKEREFVAVINRSVGSPYYADSVNGRFTISRDNAKNTVYLQMNSLKPEDTAVYYCAAREPLSYYVGGDYWGQGTQVTVSS", "polyreactivity (PSR sort gate)": "low polyreactivity"}
{"sequence": "QVQLVESGGGLVQAGGSLRLSCAASGRTFYPYAMGWYRQAPGKERELVAAINWRDGSTYYADSVKGRFTISRDNAKNTVYLQMNSLKPEDTAVYYCAADYYWWQYDYWGQGTQVTVSS", "polyreactivity (PSR sort gate)": "high polyreactivity"}
{"sequence": "QVQLVESGGGLVQAGGSLRLSCAASGRTFYQYAMGWYRQARGKERELVAAISRRGGSTYYADSVKGRFTISRDNAKNTVYLQMNSLKPEDTAVYYCAARVRGKYDYWGQGTQVTVSS", "polyreactivity (PSR sort gate)": "high polyreactivity"}
{"sequence": "QVQLVESGGGLVQAGGSLRLSCAASGRTFYRNAMGWSRQAPGKEREFVAVISVSGGSTYYADSVKGRFTISRDNAKNTVYLQMNSLKPEDTAVYYCAKRGPVRKTAYDYWGQGTQVTVSS", "polyreactivity (PSR sort gate)": "low polyreactivity"}
{"sequence": "QVQLVESGGGLVQAGGSLRLSCAASGRTFYRNAMGWYRQAPGKERELVAAITRGGRTYYADSVKGRFTISRDNAKNTVYLQMNSLKPEDTAVYYCNAVSYSSTLASKIPDDYWGQGTQVTVSS", "polyreactivity (PSR sort gate)": "high polyreactivity"}
{"sequence": "QVQLVESGGGLVQAGGSLRLSCAASGRTFYRNAMGWYRQAPGKERELVAAITWSGVSTYYADSVKGRFTISRDNAKNTVYLQMNSLKPEDTAVYYCARGRVLRNGHYFQLRNYDYWGQGTQVTVSS", "polyreactivity (PSR sort gate)": "high polyreactivity"}
{"sequence": "QVQLVESGGGLVQAGGSLRLSCAASGRTFYRNAMGWYRQAPGKERELVAGITRGGRTYYADSVKGRFTISRDNAKNTVYLQMNSLKPEDTAVYYCAKGRSWQIYYKGGIKGGYWGQGTQVTVSS", "polyreactivity (PSR sort gate)": "low polyreactivity"}
{"sequence": "QVQLVESGGGLVQAGGSLRLSCAASGRTFYRNDMGWYRQEPGKEREFVAAITSSGGTTYADSVKGRFTISRDNAKNTVYLQMNSLKPEDTAVYYCNTVLYPYWQWDYEFDYWGQGTQVTVSS", "polyreactivity (PSR sort gate)": "low polyreactivity"}
{"sequence": "QVQLVESGGGLVQAGGSLRLSCAASGRTFYRNDRGWYRQAPGKERELVAAITSSGGTTYADSVKGRFTISRDNAKNTVYLQMNSLKPEDTAVYYCNTVLYAYWQWDYEFDYWGQGTQVTVSS", "polyreactivity (PSR sort gate)": "low polyreactivity"}
{"sequence": "QVQLVESGGGLVQAGGSLRLSCAASGRTFYRSVMGWYRQAPGKERELVAAITPGGSTYADSVKGRFTISRDNAKKTVSLQMNSLKPEDTAVNYCNKRKASSSGYNYWGQVTQVTVSS", "polyreactivity (PSR sort gate)": "low polyreactivity"}
{"sequence": "QVQLVESGGGLVQAGGSLRLSCAASGRTFYRYAMGWSRQAPGKERELVATISGSGGSTYYADSVKGRFTISRDNAKNTVYLQMNSLKPEDTAVYYCNAVWRFPIGRTAPRYDYWGQGTQVTVSS", "polyreactivity (PSR sort gate)": "high polyreactivity"}
{"sequence": "QVQLVESGGGLVQAGGSLRLSCAASGRTFYRYAMGWYRQAPGKEREFVAAISNGGSNTRYADSVKGRFTISRDNATNTVYLQMNSLKPEDTAVYYCAASAYQHYNWGQGTQVTVSS", "polyreactivity (PSR sort gate)": "high polyreactivity"}
{"sequence": "QVQLVESGGGLVQAGGSLRLSCAASGRTFYRYAMGWYRQAPGKERELVAAISSNGGSTYYADSVKGRFTISRDNAKNTVYLQMNSLKPEDTAVYYCYYYYSRLFDYWGQGTQVTVSS", "polyreactivity (PSR sort gate)": "high polyreactivity"}
{"sequence": "QVQLVESGGGLVQAGGSLRLSCAASGRTFYRYAMGWYRQAPGKERELVAAITGGGGSTYYADSVKGRFTISRDNAKNTVYLQMNSLKPEDTAVYYCNRRSYGFISYNFWGQGTQVTVSS", "polyreactivity (PSR sort gate)": "high polyreactivity"}
{"sequence": "QVQLVESGGGLVQAGGSLRLSCAASGRTFYRYAMGWYRQAPGKERELVASINRGGSTNYADSVKGRFTISRDNAKNTVFLQMNCLKPEDTAVYYCACYCYCYWGQGTQVTVSS", "polyreactivity (PSR sort gate)": "low polyreactivity"}
{"sequence": "QVQLVESGGGLVQAGGSLRLSCAASGRTFYRYAMGWYRQAPGKERELVATISRSGGSTYYADSVKGRFTISRDNAKYTVYLQMKSLNPEDTAVYYCNAEGYPWGFYTYDYWGQGTQVTVSS", "polyreactivity (PSR sort gate)": "low polyreactivity"}
{"sequence": "QVQLVESGGGLVQAGGSLRLSCAASGRTFYRYAMGWYRQAPGKERELVAVITSGSRTKYADSVKGRFTISRDNAKNTVYLQMNSLKPEDTAVYYCAARGLALEGKSSGEYWGQGTQVTVSS", "polyreactivity (PSR sort gate)": "high polyreactivity"}
{"sequence": "QVQLVESGGGLVQAGGSLRLSCAASGRTFYRYAMGWYRQAPGKERELVAVITSGSRTKYADSVKGRFTISRDNAKNTVYLQMNSLKPEDTAVYYCAARVLALEGKSSGEYWGQGTQVTVSS", "polyreactivity (PSR sort gate)": "high polyreactivity"}
{"sequence": "QVQLVESGGGLVQAGGSLRLSCAASGRTFYRYSMGWYRQAPGKERELVAGISTRGGSTYYADSVKGRFTISRDNAKNTVYLQMNSLKPEDTAVYYCAAAPLAFRYDYWGQGTHVTVSS", "polyreactivity (PSR sort gate)": "high polyreactivity"}
{"sequence": "QVQLVESGGGLVQAGGSLRLSCAASGRTFYRYVMGWYRQAPGKERELVAAISKSDGSTYYADSVKGRFTISRDNAKNSVYLQMNSLKPEDTAVYYCNARLSWSAFGYWGQGTQVTVSS", "polyreactivity (PSR sort gate)": "high polyreactivity"}
{"sequence": "QVQLVESGGGLVQAGGSLRLSCAASGRTFYSNAMGWYRPAPGKERELVAAITFGGGSTYYADSVKGRFTISRDNAKNTVYVQMNSLKPEDTAVYYCAAEGYKYRFYYWGQGTQVTVSS", "polyreactivity (PSR sort gate)": "low polyreactivity"}
{"sequence": "QVQLVESGGGLVQAGGSLRLSCAASGRTFYSNAMGWYRQAPGKETELVAAISNRGGSTYYADSLKGRFTISRDNAKNTVYLQMNSLKPEYTAVYYCARYPTKYGYWGQGTQVTVSS", "polyreactivity (PSR sort gate)": "high polyreactivity"}
{"sequence": "QVQLVESGGGLVQAGGSLRLSCAASGRTFYSNARGWSRQAPGKERELVARISNGGSTHYADSVKGRFTISRDNAKNTVYLQMNSLKPEDTAVYYCNTDRGHFYTYPYTYYRLGYWGQGTQVTVSS", "polyreactivity (PSR sort gate)": "low polyreactivity"}
{"sequence": "QVQLVESGGGLVQAGGSLRLSCAASGRTFYSYAMGWYRQAPGKERELVAAISKRGTSTYYADSVKGRFTISRDNAKNTVYLQMNSLKPEDTAVYYCAAAYRGREVEYNCWGQGTQVTVSS", "polyreactivity (PSR sort gate)": "high polyreactivity"}
{"sequence": "QVQLVESGGGLVQAGGSLRLSCAASGRTFYSYAMGWYRQAPGKERELVAAISRAGGTYYADSVKGRFTISRDNAKNTVYLQMNSLKPEDTAVYYCAARQAVYGLRSDFYYWGQGTQVTVSS", "polyreactivity (PSR sort gate)": "high polyreactivity"}
{"sequence": "QVQLVESGGGLVQAGGSLRLSCAASGRTFYSYAMGWYRQAPGKERELVAAISSSSGRTYYADSVKGRFTISRDNAKNTVYLQMNSLKPEDTAVYYCNRAGGYRTTFYSWGQGTQVTVSS", "polyreactivity (PSR sort gate)": "high polyreactivity"}
{"sequence": "QVQLVESGGGLVQAGGSLRLSCAASGRTFYSYAMGWYRQAPGKERELVASITSTGSTYYADSVKGRFTISRDNAKNTVYLQMNSLKPEDTAVYYCAARRQPRYSQRSTYYYWGQGTQVTVSS", "polyreactivity (PSR sort gate)": "high polyreactivity"}
{"sequence": "QVQLVESGGGLVQAGGSLRLSCAASGRTFYSYAMGWYRQAPGKEWVLVAAISKRGTSTYYADSVKGRFTISRDNAKNTVYLQMNTLKPEDTAVYYCAAAYRGREVEYTSWGQGTQVTVSS", "polyreactivity (PSR sort gate)": "high polyreactivity"}
{"sequence": "QVQLVESGGGLVQAGGSLRLSCAASGRTFYSYAMVWYRQAPGKERELVAAISAGGSTYYADSVKGRFTSSRDNAMTTLYLQMNSLKPEDTAVYYCADTYSYYYVRYHYWGQGTQVTVSS", "polyreactivity (PSR sort gate)": "high polyreactivity"}
{"sequence": "QVQLVESGGGLVQAGGSLRLSCAASGRTFYSYVMGWYRQSPGKERELVAAINNSGGGTYYADSVKGRFTISRDNAKNTVYLQMNSLKPEDTAVYYCNAVGGYWFDYWGQGTQVTVSS", "polyreactivity (PSR sort gate)": "high polyreactivity"}
{"sequence": "QVQLVESGGGLVQAGGSLRLSCAASGRTFYTNAMGWYRQAPGKERELVAAIDGGGTTYYADSVKGRFTISRDNAKNTVYLQMNSLKPEDTAVYYCNADVFGLKQTAFDYWGQGTQVTVSS", "polyreactivity (PSR sort gate)": "low polyreactivity"}
{"sequence": "QVQLVESGGGLVQAGGSLRLSCAASGRTFYTNAMGWYRQAPGKERELVAVISRGGTTYYADSVKGRFTISRDNAKYTVYFQMNSLKPEDTAVYYCAKQRPSGDSSSQLGSWGQGTQVTVSS", "polyreactivity (PSR sort gate)": "low polyreactivity"}
